Test results published in patent publication US20140271478A1 (University of California, published 2014).

target: integrin αβ8 (αvβ8), form in the assay not stated (UniProt P06756 31-992); test: affinity determination of scFv; method and antigen form not stated
Sequence (chain, as listed by the source, chain 1 of 2): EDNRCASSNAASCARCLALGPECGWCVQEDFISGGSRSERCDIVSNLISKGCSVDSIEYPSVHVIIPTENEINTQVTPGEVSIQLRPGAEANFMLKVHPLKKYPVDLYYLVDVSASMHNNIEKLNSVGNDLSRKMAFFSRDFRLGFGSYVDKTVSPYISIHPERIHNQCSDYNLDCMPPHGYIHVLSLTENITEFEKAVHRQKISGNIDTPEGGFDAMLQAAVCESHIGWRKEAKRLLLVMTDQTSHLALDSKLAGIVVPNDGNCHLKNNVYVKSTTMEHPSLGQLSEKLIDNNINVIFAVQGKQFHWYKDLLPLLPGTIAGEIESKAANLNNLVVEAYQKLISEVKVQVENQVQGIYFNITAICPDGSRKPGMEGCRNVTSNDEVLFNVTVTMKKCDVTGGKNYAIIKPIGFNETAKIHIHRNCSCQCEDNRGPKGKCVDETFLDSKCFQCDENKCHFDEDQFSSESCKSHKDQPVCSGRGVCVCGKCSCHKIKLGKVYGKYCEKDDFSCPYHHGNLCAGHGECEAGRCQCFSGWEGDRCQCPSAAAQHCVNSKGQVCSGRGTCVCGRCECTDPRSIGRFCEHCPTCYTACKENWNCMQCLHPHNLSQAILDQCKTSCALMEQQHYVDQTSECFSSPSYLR
Sequence (P06756 31-992, chain 2 of 2): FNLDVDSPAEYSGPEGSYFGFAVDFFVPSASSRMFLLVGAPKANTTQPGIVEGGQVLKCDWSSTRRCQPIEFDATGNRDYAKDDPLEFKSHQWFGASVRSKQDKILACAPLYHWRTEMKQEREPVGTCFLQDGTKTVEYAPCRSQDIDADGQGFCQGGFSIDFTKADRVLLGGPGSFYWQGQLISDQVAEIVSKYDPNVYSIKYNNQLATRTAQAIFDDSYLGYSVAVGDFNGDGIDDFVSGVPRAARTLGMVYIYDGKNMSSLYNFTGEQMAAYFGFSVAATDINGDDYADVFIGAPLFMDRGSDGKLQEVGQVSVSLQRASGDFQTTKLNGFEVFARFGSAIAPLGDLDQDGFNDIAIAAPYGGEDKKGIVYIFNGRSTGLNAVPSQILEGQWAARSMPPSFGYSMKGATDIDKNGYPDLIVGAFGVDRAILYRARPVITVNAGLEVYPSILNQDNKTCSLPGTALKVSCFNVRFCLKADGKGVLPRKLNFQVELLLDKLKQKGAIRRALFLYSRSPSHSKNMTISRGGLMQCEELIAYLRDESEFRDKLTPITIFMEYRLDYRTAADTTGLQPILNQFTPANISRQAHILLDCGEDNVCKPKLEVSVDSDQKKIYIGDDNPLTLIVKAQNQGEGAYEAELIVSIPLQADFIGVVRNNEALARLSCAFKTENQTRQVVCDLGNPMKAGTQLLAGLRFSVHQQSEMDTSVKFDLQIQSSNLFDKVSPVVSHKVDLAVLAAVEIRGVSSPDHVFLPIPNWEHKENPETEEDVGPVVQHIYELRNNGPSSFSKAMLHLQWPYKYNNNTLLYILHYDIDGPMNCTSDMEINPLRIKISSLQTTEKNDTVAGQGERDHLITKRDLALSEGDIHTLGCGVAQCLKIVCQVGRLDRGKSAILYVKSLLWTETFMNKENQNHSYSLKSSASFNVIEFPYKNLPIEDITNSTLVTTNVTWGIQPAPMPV

Binder | Kd [nM]
11E8Mut28 scFv (scFv, V domains shown) VH: EVQLQQSGPELMKTGASVKISCKATGYTFSSYWIEWVKQRPGHGLEWIGDILPGSGTTNYNEKFKGKAAITADTSSNTSYLQLSSLTSEDSAVYYCARWGWDSYWGQGTLVTVSS VL: DIVMTQSPSSLSASLGDRVTISCSASQGISNYLNWYQQKPDGTVKLLIYYTSSLHSGVPSRFSGSGSGTDYSLTISNLEPEDIATYYCQQFSNLPYTFGGGTKLEIK | 3.52
14E5 scFv (scFv, V domains shown) VH: EVQLQQSGAELMKPGASVKISCKATGYTFSTYWIEWIKQRPGHGLEWIGHILPGSVITNYNEKFKGKAAITADTSSNTSYMQLSSLTSEDSAVYYCARWGWDSYWGQGTLVTVSS VL: DIEMTQSPSSLSASLGDRVTISCSTSQDISSSLNWYQQKPDGTVTLLIYYTSNLHSGVPSRFSGSGSGTDYSLTISNLEPEDIATYYCQQYSKLPYTFGGGTKLEIK | 14
11E8 scFv (scFv, V domains shown) VH: EVQLQQSGPELMKTGASVKISCKATGYTFSSYWIEWVKQRPGHGLEWIGDILPGSGTTNYNEKFKGRATVTADRSSNTAYMQLSSLTYGDSAVYYCATWGWDTYWDQGTSVTVSS VL: DIVMTQSPSSLSASLGDRVTISCSASQGISNYLNWYQQKPDGTVKLLIYYTSSLHSGVPSRFSGSGSGTDYSLTISNLEPEDIATYYCQQYSNLPYTFGGGTKLEIK | > 250
4F1 scFv (scFv, V domains shown) VH: QVQLQQSGAELVRPGTSVKVSCKASGYAFTNYLIEWVKQRPGQGLEWIGVINPGTGGTNYNKKFKVKATLTADKSSSTAYMQLGGLTFDDSAVYFCAREGNARTYYYAMDYWGQGTSVTVSS VL: DIEMTQTPASLSASVGETVTITCRASENIYSYLVWYQQKQGKSPQVLVYNAKTLAEGVPSRFSGSGSGTQFSLKINSLQPEDFGSYYCQHHNGTPYTFGGGTKLEIK | > 100
6B9 scFv (scFv, V domains shown) VH: QVQLQQSGAELVRPGTSVKVSCKASGYAFTDYLIEWVKQRPGQGLEWIGVINPETGGTNYNAKFKGKATLTADKSSSSAYMQLSSLTSGDSAVYFCAREAGNYIYAMDYWGQGTSVTVSS VL: DIQMTQSPASLSASVGETVTITCRASVNIYSYLVWYQQKQGKSPQLLVHNAKTLAEGVPSRFSGSGSGTQFSLKINSLQPEDFGSYYCQHHHGTPYTFGGGTKLEIK | 14.8
6B9Mut1 scFv (scFv, V domains shown) VH: QVQLQQSGAELVRPGTSVKVSCKASGYAFTDYLIEWVKQRPGQGLEWIGVINPETGGTNYNAKFRGKATLTADKSSSSAYMQLSSLTSGDSAVYFCAREAGNYIYAMDYWGQGTSVTVSS VL: DIVMTQSPASLSASVGETVTITCRASVNIYSYLVWYQQKQGKSPQLLVHNAKTLAEGVPSRFSGSGSGTQFSLKINSLQPEDFGSYYCQHHHGTPYTFGGGTKLEIK | 9.34

More lines, now with the values ahead:

Kd [nM] | Binder
1.79 | 14E5Mut83 scFv (scFv, V domains shown) VH: EVQLQQSGAVLMKPGASVKISCKATGYTFSTHWIEWIKQRPGHGLEWIGHILPGSVITNYNEKFKGKAAITADTSSNTSYMQLSSLTSEDSAVYYCARWGWDSYWGQGTLVTVSS VL: DILMTQSPSSLSASLGDRVTISCSASQGISNYLNWYQQKPDGTVKLLIYYTSSLHSGVPSRFSGSGSGTDYSLTISNLEPEDIATYYCQQYSDLPYTFGGGTKLEIK
1.83 | 14E5Mut95 scFv (scFv, V domains shown) VH: EVQLQQTGAELMKPGASVKISCKATGYTFSTYWIEWIKQRPGHGLEWIGHILPGSVITNYNEKFKGKAVITADTSSNTSYMQLSSLTSEDSAVYYCARWGWDSYWGQGTLVTVSS VL: DIEMTQSPSSLSASLGDRVTISCSASQGISNYLNWYQQKPDGTVKLLIYYTSSLHSGVPSRFSGSGSGTDYSLTISNLEPEDIATYYCQQYSDLPYTFGGGTKLEIK
3.85 | 14E5Mut11 scFv (scFv, V domains shown) VH: EVQLQQSGAELMKPGASVKISCKATGYTFSTNWIEWIKQRPGHGLEWIGHILPGSVITNYNEKFKGKAAITADTSSNTSYMQLSSLTSEDSAVYYCARWGWDSYWGQGTLVTVSS VL: DILMTQSPSSLSASLGDRVTISCSASQGISKYLNWYQQKPDGTVKLLIYYTSSLHSGVPSRFSGSGSGTDYSLTISNLEPEDIATYYCQQYSNLPYTFGGGTKLEIK
3.35 | 14E5Mut42 scFv (scFv, V domains shown) VH: EVPLQQSGAELMKPGASVKISCKATGYTFSTYWIEWIKQRPGHGLEWIGHILPGSVITNYNEKFKGKAAITADTSSNTSYMQLSSLTSEDSAVYYCARWGWDSYWGQGTLVTVSS VL: DIVMTQTPSSLSASLGDRVTISCSASQGISNYLNWYQQKPDGTVKLLIYYTSSLHSGVPSRFSGSGSGTDYSLTISNLEPEDIATYYCQQYSDLPYTFGGGTKLEIK
3.04 | 14E5Mut65 scFv (scFv, V domains shown) VH: QVQLQQSGAELMKPGASVKISCKATGYSFSTNWIEWIKQRPGHGLEWIGHILPGSVITNYNEKFKGKAAITADTSSNTSYMQLSSLTSDDSAVYYCARWGWDSYWGQGTLVTVSS VL: DIKMTQSPSSLSASLGDRVTISCSASQGISNYLNWYQQKPDGTVKLLIYYTSSLHSGVPSRFSGSGSGTDYSLTISNLEPEDIATYYCQQFSNLPYTFGGGTKLEIK

target: integrin αβ8 (αvβ8), form in the assay not stated (UniProt P06756); test: as above
Sequence (chain, as listed by the source, chain 1 of 2): as the sequence (chain, as listed by the source, chain 1 of 2) above
Sequence (P06756 31-992, chain 2 of 2): as the sequence (P06756 31-992, chain 2 of 2) above

Binder | Kd [nM]
11E8Mut94 scFv (scFv, V domains shown, part only, linker not given; order not stated) VH: EVQLQQSGPELMKTGASVKISCKATGYTFSSYWIEWVKQRPGHGLEWIGDILPGSGTTNYNEKFEGRAAITADTSSNTSYMQLSSLTSEDSAVYYCARWGWDSYWGQGTLVTVSS VL: DIKMTQTPSSLSASLGDRVTISCSASQGISNYLNWYQQKPDGTVKLLIYYTSSLHSGVPSRFSGSGSGTDYSLTISNLEPEDIATYYCQQYSNLPYTFGGGTKLEIKR | 3.2
11E8Mut39 scFv (scFv, V domains shown, part only, linker not given; order not stated) VH: EVQLQQSGPELMKTGASVKISCKATGYTFSTYWIEWVKQRPGHGLEWIGHTLPGSGTTNYNEKFKGRATITADRPSNTSYMQLSSLTYGDSAVFYCATWGWDTYWDHGTSVTVSS VL: DIEMTQSPSSLSASLGDRVTISCSTSQDVSSYLNWYQQKPDGTVTLLIYYASNLHSGVPSRFSGSGSGTDYSLAISNLEPEDIATYYCQQYSNLPYTFGGGTKLEIKA | 21.1

The remaining lines, values ahead:

Kd [nM] | Binder
1.42 | 14E5Mut68 scFv (scFv, V domains shown, part only, linker not given; order not stated) VH: EVQLQQSGAELMKPGASVKISCKATGYTFSTYWIEWIKQRPGHGLEWIGDILPGSGTTNYNEKFKGRATVTADRSSNTAYMQLSSLTSEDSAVYYCARWGWDSYWGQGTLVTVSS VL: DIKMTQSPSSLSASLGDRVTISCSASQGISNYLNWYQQKPDGTVKLLIYYTSSLHSGVPSRFSGSGSGTDYSLTISNLEPEDIATYYCQQYSELPYTFGGGTKLEIKR
2.09 | 14E5Mut54 scFv (scFv, V domains shown, part only, linker not given; order not stated) VH: EVQLQQSGAELMKPGASVKISCKATGYTFSTNWIEWIKQRPGHGLEWIGHILPGSVITNYNEKFKGKAAITADTSSNTSYMQLSSLTSEDSAVYYCARWGWDSYWGQGTLVTVSS VL: DIVMTQTPSSLSASLGDRVTIRCSASQGISNYLNWYQQKPDGTVKLLIYYTSSLHSGVPSRFSGSGSGTDYSLTISNLEPEDIATYYCQQYSNLPYTFGGGTKLEIKR
